As a reminder, the Kd is the free concentration of one partner at which half of the binding sites on the other are occupied at equilibrium, for simple one-to-one binding.

The data set has as its target PvLDH (lactate dehydrogenase) (Plasmodium vivax) (UniProt Q4PRK9). The experiment in a line: flow cytometry (Ni-NTA beads).
The mark [1] stands for this setting: dUCOTc replaces every T after the 20-nt forward primer.

In turn, “CACTCACGTCAGTGACATGCAGGTCCTCTCGCCCCCAGTGACTTGCGTGGTCAGAAATTTCGCACCAC [N15 COTc aptamer]” came in with a Kd under setting [1] of 5.6 nM.

“CACTCACGTCAGTGACATGCCAAGCGAAGTTGTGCGCCCGCGTCGTGGTCGTCAGAAATTTCGCACCAC [N5 COTc aptamer]” gave a Kd under setting [1] of 14.4 nM.

Regarding “CACTCACGTCAGTGACATGCGCATTACGCAGCGCTGCGCAGCGAGTACCGGTCAGAAATTTCGCACCAC [N0 COTc aptamer]”, the Kd (dUCOTc (COT-carboxylate-modified dU) replaces every T after the 20-nt forward primer) amounted to 3.7 nM.

These data come from article PMC12436594.
